Measurements published in US20030113711A1, “Protein kinase peptide substrate determination using peptide libraries” (priority 2001, published 2003).
Where a SMILES comes first, the peptide text is derived from it. The star is where a group is joined. Biotin = O=C1N[C@H]2[C@H](CS[C@H]2CCCCC(=O)*)N1; Ahx = NCCCCCC(=O)O

Assays:
EGFR [1] = target: T1, EGFR (Homo sapiens, UniProt P00533); assay: Kinetic evaluation of peptide substrates, varying peptide at fixed ATP (phosphocellulose filter, [γ-33P]ATP); format: biochemical; settings: ATP concentration >10 × Km (200 μM ATP); for Kcat: varying peptide, 10 minutes at 23° C.; for Km: Km for peptide
Protocol: Peptide sequences identified as preferred substrates for ErbB-2 using the methods described in Laboratory Example 3 were synthesized. The kcat and Km values for each peptide were determined as follows, using the kinases ErbB-2, ErbB-4, and EGFR.
Reactions were performed in 96-well polystyrene round bottom plates in a final volume of 45 μL. Reaction mixtures contained 50 mM MOPS, pH 7.5, 10 mM MnCl2, 1 mM dithiothreitol (DTT), 200 μM ATP, 1.0 μCi [γ-^33P] ATP, and varying concentrations of peptide. The reaction was initiated by adding the purified kinase of interest and halted after 10 minutes at 23° C. (room temperature) by adding 45 μL of 0.5% phosphoric acid in water. A 75 μL aliquot of the halted reaction mixture was then transferred to MAPH phosphocellulose filter plates (Millipore, Bedford, Mass.). The plates were filtered three times with 0.2 mL of 0.5 percent phosphoric acid. Scintillation cocktail (50 μL) was added to each well, and the plate was analyzed by counting in a Packard TOPCOUNT® scintillation counter (Packard Instrument Co., Meriden, Conn.). In these assays, the concentration of ATP was greater than ten-fold higher than the Km for ATP, which permitted the kinetic data to be treated as a pseudo-first-order reaction with varying peptide concentration. All experiments were performed in quadruplicate and the average value for each data point was analyzed. The Km and Vmax values were calculated by fitting the data to the Henri-Michaelis-Menten equation by non-linear regression using SIGMAPLOT® (SPSS Science, Chicago, Ill.). kcat values were calculated using the Vmax value, and are based on the protein concentration of the enzyme preparation and an estimate of purity determined from an evaluation of a Coomassie Blue stained SDS-polyacrylamide gel.

EGFR [2] = target: T1, EGFR; assay: Two-substrate kinetic comparison with known substrate, peptide and ATP varied simultaneously; format: biochemical; settings: peptide and ATP concentrations varied simultaneously, two-substrate fit
Protocol: In a separate experiment, the kinetic parameters of both peptide number 1 shown in Table 2, and a peptide with the sequence Biotin-Ahx-G-G-M-E-D-I-Y-F-E-F-M-G-G-K-K-K-amide (SEQ ID NO: 17), which has been previously identified as an ErbB-2 substrate (Jan et. al., (2000), Biochemistry 39: 9786-803), were determined and compared. In this experiment, both peptide and ATP concentrations were varied, and the resulting data was simultaneously fit to an equation representing a two-substrate enzyme reaction using SIGMAPLOT®. Data was collected using the kinases ErbB-2, ErbB-4, and EGFR. The results of this experiment are shown in Table 3 and indicate that for all three kinases tested, peptide number 1 shown in Table 2 is kinetically at least equivalent (based on kcat/Km values) to the known peptide substrate identified by Jan et al.

[3] = target: T2, Biotin-Ahx-(SEQ ID NO: 12)-amide
T2 chain: RAHEEIYHFFFAKKK

[4] = target: T3, Biotin-Ahx-(SEQ ID NO: 13)-amide
T3 chain: RAHHEIYHFFFAKKK

[5] = target: T4, Biotin-Ahx-(SEQ ID NO: 14)-amide
T4 chain: RAHHEEYHFFFAKKK

[6] = target: T5, Biotin-Ahx-(SEQ ID NO: 15)-amide
T5 chain: RAHEEEYHFIFAKKK

[7] = target: T6, Biotin-Ahx-(SEQ ID NO: 16)-amide
T6 chain: RAHEEEYHFFFAKKK

[8] = target: T7, Biotin-Ahx-G-G-M-E-D-I-Y-F-E-F-M-G-G-K-K-K-amide (SEQ ID NO: 17)
T7 chain: GGMEDIYFEFMGGKKK

With `CC[C@H](C)[C@H](NC(=O)[C@H](CCC(=O)O)NC(=O)[C@H](Cc1c[nH]cn1)NC(=O)[C@H](Cc1c[nH]cn1)NC(=O)[C@H](C)NC(=O)[C@H](CCCNC(=N)N)NC(=O)CCCCCNC(=O)CCCC[C@@H]1SC[C@@H]2NC(=O)N[C@@H]21)C(=O)N[C@@H](Cc1ccc(O)cc1)C(=O)N[C@@H](Cc1c[nH]cn1)C(=O)N[C@@H](Cc1ccccc1)C(=O)N[C@@H](Cc1ccccc1)C(=O)N[C@@H](Cc1ccccc1)C(=O)N[C@@H](C)C(=O)N[C@@H](CCCCN)C(=O)N[C@@H](CCCCN)C(=O)N[C@@H](CCCCN)C(N)=O` [Peptide 2, Biotin-Ahx-(SEQ ID NO: 13)-amide] ({Biotin-Ahx}-RAHHEIYHFFFAKKK-NH2) the Kcat (EGFR [1]) was 15.1 min⁻¹ and the Km (EGFR [1]) was 105 µM.

`CC[C@H](C)[C@H](NC(=O)[C@H](CC(=O)O)NC(=O)[C@H](CCC(=O)O)NC(=O)[C@H](CCSC)NC(=O)CNC(=O)CNC(=O)CCCCCNC(=O)CCCC[C@@H]1SC[C@@H]2NC(=O)N[C@@H]21)C(=O)N[C@@H](Cc1ccc(O)cc1)C(=O)N[C@@H](Cc1ccccc1)C(=O)N[C@@H](CCC(=O)O)C(=O)N[C@@H](Cc1ccccc1)C(=O)N[C@@H](CCSC)C(=O)NCC(=O)NCC(=O)N[C@@H](CCCCN)C(=O)N[C@@H](CCCCN)C(=O)N[C@@H](CCCCN)C(N)=O` [Biotin-Ahx-(SEQ ID NO: 17)-amide, Biotin-Ahx-G-G-M-E-D-I-Y-F-E-F-M-G-G-K-K-K-amide, reference compound] ({Biotin-Ahx}-GGMEDIYFEFMGGKKK-NH2) showed a Kcat (EGFR [2]) of 13.1 min⁻¹ and a Km (EGFR [2]) of 899 µM.

`C[C@H](NC(=O)[C@H](CCCNC(=N)N)NC(=O)CCCCCNC(=O)CCCC[C@@H]1SC[C@@H]2NC(=O)N[C@@H]21)C(=O)N[C@@H](Cc1c[nH]cn1)C(=O)N[C@@H](Cc1c[nH]cn1)C(=O)N[C@@H](CCC(=O)O)C(=O)N[C@@H](CCC(=O)O)C(=O)N[C@@H](Cc1ccc(O)cc1)C(=O)N[C@@H](Cc1c[nH]cn1)C(=O)N[C@@H](Cc1ccccc1)C(=O)N[C@@H](Cc1ccccc1)C(=O)N[C@@H](Cc1ccccc1)C(=O)N[C@@H](C)C(=O)N[C@@H](CCCCN)C(=O)N[C@@H](CCCCN)C(=O)N[C@@H](CCCCN)C(N)=O` [Peptide 3, Biotin-Ahx-(SEQ ID NO: 14)-amide] ({Biotin-Ahx}-RAHHEEYHFFFAKKK-NH2) showed a Kcat (EGFR [1]) of 6.5 min⁻¹ and a Km (EGFR [1]) of 12.2 µM.

`CC[C@H](C)[C@H](NC(=O)[C@H](Cc1ccccc1)NC(=O)[C@H](Cc1c[nH]cn1)NC(=O)[C@H](Cc1ccc(O)cc1)NC(=O)[C@H](CCC(=O)O)NC(=O)[C@H](CCC(=O)O)NC(=O)[C@H](CCC(=O)O)NC(=O)[C@H](Cc1c[nH]cn1)NC(=O)[C@H](C)NC(=O)[C@H](CCCNC(=N)N)NC(=O)CCCCCNC(=O)CCCC[C@@H]1SC[C@@H]2NC(=O)N[C@@H]21)C(=O)N[C@@H](Cc1ccccc1)C(=O)N[C@@H](C)C(=O)N[C@@H](CCCCN)C(=O)N[C@@H](CCCCN)C(=O)N[C@@H](CCCCN)C(N)=O` [Peptide 4, Biotin-Ahx-(SEQ ID NO: 15)-amide] ({Biotin-Ahx}-RAHEEEYHFIFAKKK-NH2) showed a Kcat (EGFR [1]) of 3.4 min⁻¹ and a Km (EGFR [1]) of 10 µM.

Molecule `CC[C@H](C)[C@H](NC(=O)[C@H](CCC(=O)O)NC(=O)[C@H](CCC(=O)O)NC(=O)[C@H](Cc1c[nH]cn1)NC(=O)[C@H](C)NC(=O)[C@H](CCCNC(=N)N)NC(=O)CCCCCNC(=O)CCCC[C@@H]1SC[C@@H]2NC(=O)N[C@@H]21)C(=O)N[C@@H](Cc1ccc(O)cc1)C(=O)N[C@@H](Cc1c[nH]cn1)C(=O)N[C@@H](Cc1ccccc1)C(=O)N[C@@H](Cc1ccccc1)C(=O)N[C@@H](Cc1ccccc1)C(=O)N[C@@H](C)C(=O)N[C@@H](CCCCN)C(=O)N[C@@H](CCCCN)C(=O)N[C@@H](CCCCN)C(N)=O` [Peptide 1, Biotin-Ahx-(SEQ ID NO: 12)-amide] ({Biotin-Ahx}-RAHEEIYHFFFAKKK-NH2) has a Kcat (EGFR [1]) of 6.1 min⁻¹, a Km (EGFR [1]) of 8 µM and a Kcat (EGFR [2]) of 3.4 min⁻¹. It also gave a Km (EGFR [2]) of 128 µM.

With `C[C@H](NC(=O)[C@H](CCCNC(=N)N)NC(=O)CCCCCNC(=O)CCCC[C@@H]1SC[C@@H]2NC(=O)N[C@@H]21)C(=O)N[C@@H](Cc1c[nH]cn1)C(=O)N[C@@H](CCC(=O)O)C(=O)N[C@@H](CCC(=O)O)C(=O)N[C@@H](CCC(=O)O)C(=O)N[C@@H](Cc1ccc(O)cc1)C(=O)N[C@@H](Cc1c[nH]cn1)C(=O)N[C@@H](Cc1ccccc1)C(=O)N[C@@H](Cc1ccccc1)C(=O)N[C@@H](Cc1ccccc1)C(=O)N[C@@H](C)C(=O)N[C@@H](CCCCN)C(=O)N[C@@H](CCCCN)C(=O)N[C@@H](CCCCN)C(N)=O` [Peptide 5, Biotin-Ahx-(SEQ ID NO: 16)-amide] ({Biotin-Ahx}-RAHEEEYHFFFAKKK-NH2) the Kcat (EGFR [1]) was 2.4 min⁻¹ and the Km (EGFR [1]) was 7.5 µM.

B1: ErbB-4 (protein)
chain: RRKSIKKKRALRRFLETELVEPLTPSGTAPNQAQLRILKETELKRVKVLGSGAFGTVYKGIWVPEGETVKIPVAIKILNETTGPKANVEFMDEALIMASMDHPHLVRLLGVCLSPTIQLVTQLMPHGCLLEYVHEHKDNIGSQLLLNWCVQIAKGMMYLEERRLVHRDLAARNVLVKSPNHVKITDFGLARLLEGDEKEYNADGGKMPIKWMALECIHYRKFTHQSDVWSYGVTIWELMTFGGKPYDGIPTREIPDLLEKGERLPQPPICTIDVYMVMVKCWMIDADSRPKFKELAAEFSRMARDPQRYLVIQGDDRMKLPSPNDSKFFQNLLDEEDLEDMMDAEEYLVPQAFNIPPPIYTSRARIDSNRSEIGHSPPPAYTPMSGNQFVYRDGGFAAEQGVSVPYRAPTSTIPEAPVAQGATAEIFDDSCCNGTLRKPVAPHVQEDSSTQRYSADPTVFAPERSPRGELDEEGYMTPMRDKPKQEYLNPVEENPFVSRRKNGDLQALDNPEYHNASNGPPKAEDEYVNEPLYLNTFANTLGKAEYLKNNILSMPEKAKKAFDNPDYWNHSLPPRSTLQHPDYLQEYSTKYFYKQNGRIRPIVAENPEYLSEFSLKPGTVLPPPPYRHRNTVV
In the case of B1, the Kcat [3] is reported as 4.1 min⁻¹, the kcat [3] is reported as 6.3 min⁻¹ and the “kinetic comparison with the known substrate (SEQ ID NO: 17), based on kcat/Km” value [3] is reported as “for all three kinases tested, peptide number 1 shown in Table 2 is kinetically at least equivalent (based on kcat/Km values) to the known peptide substrate identified by Jan et al”. The Kcat [4] was 4.6 min⁻¹, the Km [4] was 37.6 µM and the kcat/Km [4] was 120000 min⁻¹ M⁻¹. It also gave a Kcat [5] of 3.9 min⁻¹, a Km [5] of 13.6 µM and a kcat/Km [5] of 280000 min⁻¹ M⁻¹. It also gave a Kcat [6] of 1.3 min⁻¹, a Km [6] of 12.5 µM and a kcat/Km [6] of 100000 min⁻¹ M⁻¹. The Kcat [7] was 0.9 min⁻¹, the Km [7] was 6 µM and the kcat/Km [7] was 150000 min⁻¹ M⁻¹. The Km [8] was 144 µM, the kcat [8] was 4.6 min⁻¹ and the kcat/Km [8] was 32000 min⁻¹ M⁻¹.
